Experiment [1] concerns ammonia water-induced cough in mice. Put plainly: Antitussive effect on ammonia water-induced cough in mice. It is filed as in vivo, ICR mice. To be noted: for Latency period: 1 hour before 10% ammonia water 10 seconds, solvent control 30.0 ± 1.8; for Latency period / Cough frequency: X ± SEM; for Cough frequency: within 2 minutes, 1 hour before 10% ammonia water, solvent control 65.5 ± 3.8. How it is done:
• Animals: male ICR mice; • Drug and reagents: dextromethorphan hydrobromide, ammonia, 0.2% CMC-Na, protein CF1; • Instruments: Compressed nebulizer (403T), balance (XS105DU). • Experiment grouping: • Solvent control group; • Dextromethorphan 15 mg/kg group; • Protein CF1, 20 mg/kg group, 50 mg/kg group.
Model establishment and drug administration: Mice were orally administered dextromethorphan or varying doses of protein CF1 (administration volume: 10 ml/kg). The solvent control group were administered an equal volume of distilled water. After 1 hour, mice were placed in a sealed chamber and atomized with 10% ammonia water for 10 seconds. The cough latency period and cough frequency within 2 minutes were then observed and recorded.
Data processing: The oral administration time point, the nebulization exposure time point, the cough latency period, and the cough frequency within 2 minutes were recorded respectively. The cough latency period refers to the time interval of seconds required from the start of ammonia nebulization to the occurrence of coughing. The manifestation of coughing in mice is characterized by the contraction of their abdominal muscles (chest retraction) and the opening of their mouths wide. The mean and standard error of data in each group were calculated. The TTEST test was applied to compare the model group with the other groups. P<0.05 was considered as a significant difference.

For experiment [2], the system named is yeast-induced fever model in rats. The experiment is described as follows: Yeast-induced SD rat fever model. It is filed as in vivo, SD rats. The following applies: for Basal body temperature: rectal temperature before modeling, N=8; for Body temperature 2 hours after modeling / Body temperature 6 hours after modeling / Body temperature 8 hours after modeling / Body temperature 4 hours after modeling: then 20% yeast suspension 10 ml/kg s.c.; for Body temperature 2 hours after modeling: model group 37.5 ± 0.1; for Body temperature 6 hours after modeling / Body temperature 8 hours after modeling: model group 37.6 ± 0.1; for Body temperature 4 hours after modeling: model group 37.7 ± 0.1; for Effect on body temperature of model rats (in words): P<0.05 vs model group. As for the experimental part:
• Animals: male SD rats, weight 230-260 grams; • Medicines: yeast (OXOID LP0021), Aspirin (SIGMA A2093), protein CF1; • Instruments: electronic balance (SARTORIUS BP121S), electronic clinical thermometer • (CITIZEN CT-513W). • Experiment grouping: • Normal control group; • Model group: yeast-induced fever model; • Positive control group: Aspirin 300 mg/kg group; • Protein CF1, 10 mg/kg group, 50 mg/kg group.
Preparation of experimental animals: After the experimental animals were adapted to the experimental environment (temperature 22° C.±2° C., relative humidity 50%±2%) for 1 day, the rectal temperature was measured for pre-adaptation at 8:00 in the morning and 15:00 respectively. The animals were fasted for 12 hours before the experiment with water provided ad libitum, and their bowels were emptied before the rectal temperature was measured. Before each temperature measurement, the probe of the electronic thermometer was applied with Vaseline and inserted 2 cm into the rat's rectum (a marker was made at 2 cm to ensure consistent insertion depth each time). The body temperature was recorded after readings stabilized.
(§1) Subcutaneous injection of dry yeast to replicate the rat fever model: Before model establishment, the body temperature of rats was measured. Qualified rats with body temperatures of 36.2-37.3° C. were selected and randomly grouped, with 8 rats per group. After oral administration of aspirin and different doses of protein CF1, 20% yeast suspension (10 ml/kg) was immediately subcutaneously injected. The normal control group was subcutaneously injected with the same volume of normal saline. The body temperatures of rats were monitored 2 hours later, once every 2 hours, for a total of 8 hours.
(§2) Based on the body temperature values measured at each time point on the day of the experiment, the mean, standard deviation and standard error of body temperature of rats in each group were calculated. The TTEST test was applied to compare the data of each group between groups, and P<0.05 was considered as a significant difference.

Experiment [3] has as its system lipopolysaccharide (LPS) induced fever in rats. The experiment is described as follows: Lipopolysaccharide (LPS)-induced SD rat fever model. The following applies: for Body temperature 2 hours after modeling / Body temperature 4 hours after modeling / Body temperature 6 hours after modeling / Body temperature 8 hours after modeling: then LPS 20 μg/kg i.p.; for Body temperature 2 hours after modeling / Body temperature 4 hours after modeling: model group 37.7 ± 0.1; for Body temperature 6 hours after modeling: model group 37.8 ± 0.2; for Body temperature 8 hours after modeling: model group 37.9 ± 0.2; for Effect on body temperature of model rats (in words): P<0.05 vs model group. The format is in vivo, SD rats. How it is done:
• Animals: Male SD rats, weight: 230-260 grams; • Drugs: lipopolysaccharide (LPS, SIGMA L-2880), aspirin (SIGMA A2093), protein CF1; • Instruments: electronic balance (SARTORIUS BP121S), electronic clinical thermometer (CITIZEN CT-513W). • Experiment grouping: • Normal control group; • Model group: lipopolysaccharide fever model group; • Positive control group: Aspirin 300 mg/kg group; • Protein CF1, 10 mg/kg group, 50 mg/kg group. • Method: the method for replicating the rat fever model via intraperitoneal injection of lipopolysaccharide. • Preparation of experimental animals: After the experimental animals were adapted to the experimental environment (temperature 22° C.±2° C., relative humidity 50%±2%) for 1 day, the rectal temperature was measured for pre-adaptation at 8:00 in the morning and 15:00 respectively. The animals were fasted for 12 hours before the experiment with water provided ad libitum, and their bowels were emptied before the rectal temperature was measured. Before each temperature measurement, the probe of the electronic thermometer was applied with Vaseline and inserted 2 cm into the rat's rectum (a marker was made at 2 cm to ensure consistent insertion depth each time). The body temperature was recorded after readings stabilized.
as §1, with “Intraperitoneal Injection” for “Subcutaneous injection”, “Lipopolysaccharide” for “dry yeast”, “lipopolysaccharide (20 μg/kg, 2” for “20% yeast suspension (10”, “intraperitoneally” for “subcutaneously”, “later and” for “later, once every 2 hours,”
as §2

[4] abbreviates: aspirin 300 mg/kg oral, 2, 4, 6 and 8 hours after modeling.

Structures can show the parent of a compound that is named as a salt.

In experiment [1] (dextromethorphan 15 mg/kg oral), `COc1ccc2c(c1)[C@]13CCCC[C@@H]1[C@H](C2)N(C)CC3` [Dextromethorphan, dextromethorphan hydrobromide, reference compound] yielded a Latency period of 45.4 ± 2.1 s and a Cough frequency of 36.8 ± 2.8. For the same molecule, the “Effect on latency period and cough frequency (in words)” value in experiment [1] (dextromethorphan 15 mg/kg oral, vs solvent control group, P<0.05) was “significant improvements in terms of latency period and cough frequency”.

With `CC(=O)Oc1ccccc1C(=O)O` [Aspirin, aspirin, reference compound], the Basal body temperature in experiment [2] (aspirin 300 mg/kg oral group) came to 36.9 ± 0.1 °C. Besides, in experiment [2] (aspirin 300 mg/kg oral), the “Body temperature 2 hours after modeling” value was 36.9 ± 0.1 °C, the “Body temperature 6 hours after modeling” value came to 37.2 ± 0.1 °C, the “Body temperature 8 hours after modeling” value worked out at 37.1 ± 0.1 °C and the “Body temperature 4 hours after modeling” value came out at 37.1 ± 0.2 °C. Further, the “Effect on body temperature of model rats (in words)” value (shortened to “Effect … of model rats (in words)”) in experiment [2] (setting [4]) is reported as “can effectively inhibit the increase of body temperature”. In experiment [3] (aspirin 300 mg/kg oral), the “Body temperature 2 hours after modeling” value was found to be 37.0 ± 0.2 °C, the “Body temperature 4 hours after modeling” value turned out to be 37.0 ± 0.2 °C, the “Body temperature 6 hours after modeling” value was 37.3 ± 0.1 °C and the “Body temperature 8 hours after modeling” value is 37.2 ± 0.1 °C. For the same molecule, the “Effect … of model rats (in words)” value in experiment [3] (setting [4]) is on record as “can effectively inhibit the increase of body temperature”.

B1: CF1: keratin with the amino acid sequence of SEQ ID NO. 1, expressed in E. coli; tested batch is the protein in Example 7 (protein)
chain: MSCRSYRVSSGHRVGNFSSCSAGIPRNLNRFRASSVSCRSGPSFRGIGGFGSRSVITFGSCSPRIAAVGPRPIRCGVGFGAGSGMAFGFGDGIGAGLGFGSGSYLGYGFGGPGFGYRVGGIGVPAAPSITPVTVNQSLLTPLNLEIDPNAQRVKRDEKEQIKTLNNRFASFIDKVRFLEQQNKLLETKWSFLQEQKGARSNLEPLFENYITNLQRQLDIANSERARFEAERNQLQDVLEGFKKKYEEEVVFRANAENEFVALKKDVDAAFLNKAELEANVDTLTQEIDFLKTLYAAEIQLLQSHISETSVIVKMDNSRDLDLDGIIAEVRAQYEEVAKRSRADAEAWYQTKYEEMRVTAGQHCDNLRNTREEINELTRLIQRLKAEIEHAKAQRARLEAAVAEAEQQGEAALNDAKCKLADLEAALQQAKQDMARQLREYQELMNAKLGLDIEIATYRRLLEGEEIRICEGVGPVNISVSSSRGGVVCGPESLVTSSTLSRSGVTFSGSSSIRPSGACGSSLGGVVVAGGDLLSAGSRGGSVLVGEACVPSVPCPLPTEGFSSCSGGRSSSLRFVSTTTSRRTKY
As for B1, the Latency period in experiment [1] (CF1 20 mg/kg oral) is listed as 34.6 ± 3.1 s; in experiment [1] (CF1 50 mg/kg oral), 35.1 ± 4.6 s. Further, in experiment [1] (CF1 20 mg/kg oral, vs solvent control group), the “Effect on cough frequency (in words)” value is listed as “statistically significant difference in term of cough frequency, but the effect is weak”. In experiment [1] (dose not stated), the “Antitussive effect (summary, in words)” value is on record as “can reduce the cough frequency”. Further, the Cough frequency in experiment [1] (CF1 20 mg/kg oral) was determined as 50.1 ± 2.8; in experiment [1] (CF1 50 mg/kg oral), 56.4 ± 4.2. Also, the “Effect on body temperature of model animals (summary, in words)” value in experiment [2] (8 hours post-modeling, dose not stated) is “significant effect in reducing the elevated body temperature”. Besides, the Basal body temperature in experiment [2] (CF1 10 mg/kg oral group) turned out to be 36.9 ± 0.1 °C; in experiment [2] (CF1 50 mg/kg oral group), 36.8 ± 0.1 °C; in experiment [3] (CF1 50 mg/kg oral group, rectal temperature before modeling, N=8), 36.8 ± 0.05 °C. In addition, the “Body temperature 2 hours after modeling” value is 37.0 ± 0.1 °C in experiment [2] (CF1 10 mg/kg oral), 36.8 ± 0.1 °C in experiment [2] (CF1 50 mg/kg oral), 37.3 ± 0.1 °C in experiment [3] (CF1 10 mg/kg oral) and 37.3 ± 0.2 °C in experiment [3] (CF1 50 mg/kg oral). The “Body temperature 6 hours after modeling” value came out at 37.4 ± 0.1 °C in experiment [2] (CF1 10 mg/kg oral), 37.4 ± 0.1 °C in experiment [2] (CF1 50 mg/kg oral), 37.7 ± 0.2 °C in experiment [3] (CF1 10 mg/kg oral) and 37.9 ± 0.2 °C in experiment [3] (CF1 50 mg/kg oral). Further, the “Body temperature 8 hours after modeling” value in experiment [2] (CF1 10 mg/kg oral) was found to be 37.2 ± 0.05 °C; in experiment [2] (CF1 50 mg/kg oral), 37.4 ± 0.1 °C; in experiment [3] (CF1 10 mg/kg oral) it was 37.9 ± 0.1 °C; in experiment [3] (CF1 50 mg/kg oral), 37.9 ± 0.1 °C. The “Body temperature 4 hours after modeling” value in experiment [2] (CF1 10 mg/kg oral) is 37.3 ± 0.1 °C; in experiment [2] (CF1 50 mg/kg oral), 37.2 ± 0.1 °C; in experiment [3] (CF1 10 mg/kg oral), 37.7 ± 0.2 °C; in experiment [3] (CF1 50 mg/kg oral), 37.6 ± 0.2 °C. For the same molecule, the “Effect … of model rats (in words)” value is “can significantly inhibit the temperature elevation” in experiment [2] (CF1 10 mg/kg oral, 2 hours and 8 hours post-modeling); “can significantly reduce the body temperature” in experiment [3] (CF1 10 mg/kg oral, 2 hours after modeling). Besides, in experiment [3] (2 hours post-modeling, dose not stated), the “Effect on body temperature of model rats (summary, in words)” value is listed as “significant effect in reducing the body temperature”.

For the origin of these results see patent publication US20260201002A1, “KERATIN CF1, PREPARATION METHOD THEREFOR, PHARMACEUTICAL COMPOSITION COMPRISING SAME, AND USE THEREOF” (INSTITUTE OF MATERIA MEDICA ,CHINESE ACADEMY OF MEDICAL …, priority 2023, published 2026).
